From paper doi:10.1101/2025.02.17.638454, “Synergistic RAS-MAPK and AKT Activation in MYC-Driven Tumors via Adjacent PVT1 Rearrangements” (bioRxiv, 2025)

Biological target: T1, Recombinant KRAS protein (#ab156968, Abcam) (UniProt P01116 1-189)
T1 construct: KRAS, recombinant protein bought from Abcam; source: bought: Abcam (#ab156968), dialyzed into ITC buffer
Test: ITC; twenty 6 ul injections (150 s intervals) of 500 uM HNB into the cell with 93 uM KRAS; 20 mM Tris pH 8.0, 100 mM NaCl, 5 mM beta-mercaptoethanol; 25 C; Affinity ITC (TA Instruments)
Settings: both partners purified

T1 sequence (P01116 whole entry): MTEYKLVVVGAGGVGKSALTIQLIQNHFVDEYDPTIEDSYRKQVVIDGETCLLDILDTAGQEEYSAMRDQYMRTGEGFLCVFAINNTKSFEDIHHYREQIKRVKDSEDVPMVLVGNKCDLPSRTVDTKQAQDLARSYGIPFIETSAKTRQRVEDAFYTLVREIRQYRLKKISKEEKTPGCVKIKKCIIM

Kd: 364 ± 2 µM
B1: Honeybadger (HNB) peptide used for ITC (peptide)
chain: MKTQLGAVKGFLHV
